The values that follow come from ChEMBL document CHEMBL3526099, “Metabolism of triethylenetetramine and 1,12-diamino-3,6,9-triazadodecane by the spermidine/spermine-N(1)-acetyltransferase and thialysine acetyltransferase” (Drug Metab Dispos, 2013).

For series [1], the system named is NCCNCCNCCN
Put plainly: not read.

Series [2] has as its system NCCCNCCNCCNCCN
Put plainly: Drug metabolism assessed as mouse SSAT1-mediated metabolite formation. Format: ADME.

Sequence of Diamine acetyltransferase 1 (Homo sapiens) (chain, as listed by the source): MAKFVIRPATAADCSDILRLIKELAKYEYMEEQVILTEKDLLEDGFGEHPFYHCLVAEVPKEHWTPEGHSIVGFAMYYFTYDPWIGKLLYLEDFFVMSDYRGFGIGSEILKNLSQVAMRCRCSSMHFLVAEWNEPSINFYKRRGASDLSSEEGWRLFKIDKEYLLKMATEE
Sequence of Diamine acetyltransferase 1 (Mus musculus) (chain, as listed by the source): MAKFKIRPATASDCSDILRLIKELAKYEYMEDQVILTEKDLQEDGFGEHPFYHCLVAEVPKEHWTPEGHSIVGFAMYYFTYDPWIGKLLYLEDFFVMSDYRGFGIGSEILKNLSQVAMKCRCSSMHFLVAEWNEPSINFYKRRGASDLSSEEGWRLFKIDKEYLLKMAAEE

In general, Km refers to the concentration of substrate that gives half-maximal velocity. Usually Vmax stands for the top rate of the reaction or transport when substrate is in excess. As for “Diamine acetyltransferase 1 (Homo sapiens)”, in series [1], the Km was determined as 83 µM and the Vmax came out at 0.9 µmol/min/mg.
Consider “Diamine acetyltransferase 1 (Mus musculus)”, for which, in series [2], the Km amounted to 106 µM and the Vmax is 1.17 µmol/min/mg.
